B1: PRKX (parent)
chain: KLLVVDRTRRLGNMKNGANDVKHH

Variants of: B1
Assay: protein stability index of a GFP-peptide fusion (GPS, HEK-293T) (PSI 1-6); higher = more stable
Conditions: c terminus: a fixed tail appended
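Also: lentivirally expressed fusions sorted by FACS into six bins by GFP to DsRed ratio, PSI derived from sequencing read proportions per bin multiplied by bin number.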

Protein stability index: each site, then its substitutions
N16: H 2.85; I 2.74; T 3.25; W 2.26; P 3.16; C 2.13
L3: Y 2.69; R 3.87; F 2.72; A 3.92; T 4.16
T8: K 2.88; C 2.98; Y 2.67; R 2.86; Q 3.08; A 3.03; D 3.46; W 2.78; N 2.78
V5: Q 3.11; W 2.33; H 3.41; C 3.72; R 3.31; P 3.62
K22: M 2.51; P 3.02; W 2.13; G 3.24; A 2.71; R 2.97
D20: L 2.41; G 3.27; C 2.33; K 2.55; A 3.13; T 2.65; Q 3.13; F 2.13; P 2.75
K15: G 3.38; W 2.48; H 3.27; P 2.9; Q 3.5; V 2.72; N 2.95; Y 2.68; S 3.47
V4: M 2.57; Y 3.32; Q 3.19; F 2.61
R9: L 2.69; S 3.33; I 2.73; W 2.12; C 2.21; E 3.5; A 3.11; Y 2.63
L2: E 5.03; C 3.57; N 4.03; K 3.99; A 3.84; G 4.1; M 3.5; Q 4.39; H 3.68; S 4.13
N19: K 3.6; P 2.97; E 3.3; R 2.54
G17: Q 3; E 3.52; M 2.63; Y 2.34; V 3.04; W 1.86; N 3.08; P 2.63; I 2.74
D6: A 2.19; M 1.97; E 2.94; K 2.55; W 1.69; I 2.87; R 2.14
H24: Q 3.01; W 2.76; L 2.11
R10: D 3.68; G 3.35; T 3.83; C 2.61; K 2.84; E 4.05; H 3.04
N13: P 2.75; E 3.6; M 2.51; Q 2.6; T 3.09; D 3.46; K 2.81; A 3.44
M14: V 3.22; Q 3.62; N 3.67
A18: W 2.2; S 3.27; Q 2.95; K 3.21; N 3.19; L 2.7
L11: C 2.57; D 3.84; A 3.23; N 3.6
G12: Q 3.19; V 2.67; L 2.83; R 2.67; P 3.19; N 2.6; F 2.51; D 3.12; A 2.84; I 2.04; C 2.84; W 2.19
V21: K 3.54; G 3.47; A 3.5; W 2.62; L 2.66; C 2.67; I 2.55
H23: L 2.85; E 3.44; R 2.44; Y 2.35; C 2.94; A 3.1; S 2.73
R7: M 2.43; F 1.83; V 2.81; T 3.18; P 3.62; Y 2.5; G 3.22; N 3.25
K1: E 2.94; M 1.85; R 2.52; W 1.55; I 1.78; P 3.63; V 1.82; F 1.44; Q 3.37; L 1.86
